Drawing on US20220268706A1, this text covers EC50, response to 1 µM FLAG peptide and decrease in the BRET ratio for 1 substance.

The target in assay [1] is antibody-12/36-RLuc8 conjugate (Renilla reniformis). The experiment in a line: BRET competition, Fluorostar; 50 nM mAb-12/36-RLuc8, 200 nM FLAG-GFP^2 as competitor.
The target in assay [2] is antibody-CLICK-RLuc8 (anti-FLAG mAb-dPEG4-DBCO:RLuc8:dPEG8azide conjugate) (Renilla reniformis). Put plainly: BRET competition; 50 nM conjugate, 200 nM FLAG-GFP^2 as competitor, 1 µM FLAG peptide.
The target is the same in assay [3]. Put plainly: BRET competition; 5 nM antibody-CLICK-RLuc8, 150 nM FLAG-GFP^2 as competitor, 100 nM FLAG peptide; same for every order of addition.

Chain of antibody-CLICK-RLuc8 (anti-FLAG mAb-dPEG4-DBCO:RLuc8:dPEG8azide conjugate) (Renilla reniformis) (P27652 other isoform, or with tags, fused parts or gaps): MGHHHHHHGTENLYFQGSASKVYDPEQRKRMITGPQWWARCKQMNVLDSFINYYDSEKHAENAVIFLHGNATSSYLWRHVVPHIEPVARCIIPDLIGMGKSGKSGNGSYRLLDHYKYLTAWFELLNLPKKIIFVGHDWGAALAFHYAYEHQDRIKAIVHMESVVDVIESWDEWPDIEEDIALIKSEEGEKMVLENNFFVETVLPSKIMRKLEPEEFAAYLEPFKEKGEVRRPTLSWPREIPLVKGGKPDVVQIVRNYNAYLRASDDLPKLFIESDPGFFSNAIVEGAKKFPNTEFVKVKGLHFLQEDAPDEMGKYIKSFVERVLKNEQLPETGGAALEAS
Chain of antibody-12/36-RLuc8 conjugate (Renilla reniformis) (P27652 other isoform, or with tags, fused parts or gaps): as above

FLAG peptide (DYKDDDDK) displayed an EC50 in assay [1] of 274 nM. Also, the response to 1 µM FLAG peptide in assay [2] is 45%. In addition, the decrease in the BRET ratio in assay [3] was found to be 22%.
